Test results from patent publication US20260265358A1 (BYOMASS, published 2026).

T1: Human Activin A Fc (human, UniProt P03970 309-424 (pig entry))
T1 construct: also called human Activin A-Fc fusion; human Activin A-Fc antigen; not shown: Fc part
T1 sequence: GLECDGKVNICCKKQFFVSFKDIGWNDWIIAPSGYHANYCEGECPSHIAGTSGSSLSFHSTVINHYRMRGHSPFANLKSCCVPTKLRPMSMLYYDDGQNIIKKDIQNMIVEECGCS

T2: Activin A (ligand of the Activin 2B Receptor/SMAD reporter assay) (UniProt P08476 311-426)
T2 sequence (looked up): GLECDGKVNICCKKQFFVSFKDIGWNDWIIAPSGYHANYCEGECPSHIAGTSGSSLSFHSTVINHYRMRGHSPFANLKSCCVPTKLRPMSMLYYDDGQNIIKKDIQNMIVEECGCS

T3: Activin B (UniProt P09529 293-407)
T3 sequence (looked up): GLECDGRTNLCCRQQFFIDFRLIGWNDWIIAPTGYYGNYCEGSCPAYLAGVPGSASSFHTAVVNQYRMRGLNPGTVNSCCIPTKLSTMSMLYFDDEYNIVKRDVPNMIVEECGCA

T4: Human GDNF (human, UniProt P39905 78-211)
T4 sequence (looked up): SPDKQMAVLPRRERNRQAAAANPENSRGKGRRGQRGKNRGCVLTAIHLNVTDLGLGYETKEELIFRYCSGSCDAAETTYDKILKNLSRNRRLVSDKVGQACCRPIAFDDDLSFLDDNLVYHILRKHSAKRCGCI

T5: BMP9 (UniProt Q9UK05 320-429)
T5 sequence (looked up): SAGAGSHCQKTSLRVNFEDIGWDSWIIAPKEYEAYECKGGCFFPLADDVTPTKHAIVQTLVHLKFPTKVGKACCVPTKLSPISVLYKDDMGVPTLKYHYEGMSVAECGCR

T6: BMP10 (UniProt O95393 317-424)
T6 sequence (looked up): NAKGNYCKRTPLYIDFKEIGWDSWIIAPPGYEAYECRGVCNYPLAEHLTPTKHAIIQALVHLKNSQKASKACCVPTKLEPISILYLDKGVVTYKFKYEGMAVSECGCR

T7: GDF15 Fc (UniProt Q99988 197-308, limits assumed)
T7 construct: not shown: Fc part
T7 sequence (looked up): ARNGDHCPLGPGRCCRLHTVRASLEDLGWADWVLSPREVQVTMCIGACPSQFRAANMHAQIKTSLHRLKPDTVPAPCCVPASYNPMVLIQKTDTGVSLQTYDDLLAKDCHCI

T8: Human GDF10 (human, UniProt P55107 369-478)
T8 sequence (looked up): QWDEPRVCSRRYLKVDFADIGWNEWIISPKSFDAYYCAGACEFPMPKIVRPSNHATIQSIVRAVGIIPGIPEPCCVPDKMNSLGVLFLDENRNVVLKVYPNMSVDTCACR


Experiments:
Human Activin A Fc = biological target: T1, Human Activin A Fc; assay: Octet BLI, IgG, avid
Procedure: ForteBio affinity measurements were performed on an Octet HTX generally as previously described (see, e.g., Estep et al, Mabs 5(2), 270-278 (2013)). Briefly, ForteBio affinity measurements were performed by loading IgGs on-line onto AHC sensors. Sensors were equilibrated off-line in assay buffer for 30 min and then monitored on-line for 60 seconds for baseline establishment. Sensors with loaded IgGs were exposed to 100 nM antigen for 3 minutes, and afterwards were transferred to assay buffer for 3 min for off-rate measurement. All kinetics were analyzed using the 1:1 binding model.
Binding affinity and epitope binning assays were performed with a ForteBio instrument as described herein.

[1] = biological target: T2, Activin A (ligand of the Activin 2B …); assay: cell-based or functional assay
Activin B [2] = biological target: T3, Activin B; assay: Octet BLI, IgG, avid
Human GDF8 = Human GDF8 (human, UniProt O14793 267-375); assay: Octet BLI, IgG, avid
Human GDNF = biological target: T4, Human GDNF; assay: Octet BLI, IgG, avid
BMP9 = biological target: T5, BMP9; assay: Octet BLI, IgG, avid
BMP10 = biological target: T6, BMP10; assay: Octet BLI, IgG, avid
GDF15 Fc = biological target: T7, GDF15 Fc; assay: Octet BLI, IgG, avid
Human GDF11 = Human GDF11 (human, UniProt O95390 299-407); assay: Octet BLI, IgG, avid
Human GDF10 = biological target: T8, Human GDF10; assay: Octet BLI, IgG, avid
Activin B [3] = biological target: T3, Activin B; assay: cell-based or functional assay

Chain of Human GDF11 (O95390 299-407 limits assumed): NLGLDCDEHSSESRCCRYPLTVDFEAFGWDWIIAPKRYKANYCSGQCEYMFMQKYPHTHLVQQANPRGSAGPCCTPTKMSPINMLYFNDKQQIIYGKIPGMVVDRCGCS

Binder	Kd (Human Activin A Fc)	Activin A-ActRIIB SMAD IC50 pM [1]	Kd (Activin B [2])	binding result (Human GDF8)	binding result (Human GDNF)	binding result (BMP9)	binding result (BMP10)	binding result (GDF15 Fc)	binding result (Human GDF11)	binding result (Human GDF10)	Activin B-ActRIIB SMAD IC50 pM (Activin B [3])	Kd (Human GDF11)	binding result (Activin B [2])
anti-Activin A antibody Clone M (IgG) (antibody, V domains shown, IgG format; also called Antibody M) VH: QLQLQESGPGLVKPSETLSLTCTVSGGSISSSDYYWGWIRQPPGKGLEWIGSIYYPANTYYNPSLKSRVTISVDTSKNQFSLKLSSVTAADTAVYYCARGYWNYGMDVWGQGTTVTVSS VL: not shown	1 nM	719 pM	9.58 nM	no binding (tested: 100 nM antigen)	no binding (tested: 100 nM antigen)	no binding (tested: 100 nM antigen)	no binding (tested: 100 nM antigen)	no binding (tested: 100 nM antigen)	no binding (tested: 100 nM antigen)	no binding (tested: 100 nM antigen)			
anti-Activin A antibody Clone N (IgG) (antibody, V domains shown, IgG format; also called Antibody N) VH: QLQLQESGPGLVKPSETLSLTCTVSGGSISSSDYYWGWIRQPPGKGLEWIGSIYYPASTYYNPSLKSRVTISVDTSKNQFSLKLSSVTAADTAVYYCARGYWNYGMDVWGQGTTVTVSS VL: not shown	1.26 nM	241 pM	6.98 nM	no binding (tested: 100 nM antigen)	no binding (tested: 100 nM antigen)	no binding (tested: 100 nM antigen)	no binding (tested: 100 nM antigen)	no binding (tested: 100 nM antigen)	no binding (tested: 100 nM antigen)	no binding (tested: 100 nM antigen)			
anti-Activin A antibody Clone C (IgG) (antibody, V domains shown, IgG format) VH: QVQLVQSGAEVKKPGASVKVSCKASGYTFPGYHMHWVRQAPGQGLEWMGVINPSSGDTNYAQKFQGRVTMTRDTSISTAYMELSRLRSDDTAVYYCARARDIAALGLGAFDYWGQGTLVTVSS VL: EIVLTQSPGTLSLSPGERATLSCRASQSVSSSYLAWYQQKPGQAPRLLIYGASSRAGGIPDRFSGSGSGTDFTLTISRLEPEDFAVYYCQQYVAYPRTFGGGTKVEIKR	0.477 nM		148 nM	no binding (tested: 100 nM antigen)	no binding (tested: 100 nM antigen)	no binding (tested: 100 nM antigen)	no binding (tested: 100 nM antigen)	no binding (tested: 100 nM antigen)		no binding (tested: 100 nM antigen)	> 100000 pM	12.7 nM	
anti-Activin A antibody Clone J (IgG) (antibody, V domains shown) VH: EVQLVQSGAEVKKPGSSVKVSCKASGGTFSLYAISWVRQAPGQGLEWMGGIIPYFGTANYAQKFQGRVTITADESTSTAYMELSSLRSEDTAVYYCARGGSGYSTSWGSSLYWGQGTLVTVSS VL: EIVLTQSPGTLSLSPGERATLSCRASQSVSSSYLAWYQQKPGQAPRLLIYGAFSRATGIPDRFSGSGSGTDFTLTISRLEPEDFAVYYCQQSGVFPYTFGGGTKVEIKR		41.7 pM											
anti-Activin A antibody Clone O (IgG) (antibody, V domains shown, IgG format; also called Antibody O) VH: QVQLVQSGAEVKKPGSSVKVSCKASGGTFSNYDINWVRQAPGQGLEWMGGIIPVFGTAAYAQKFQGRVTITADESTSTAYMELSSLRSEDTAVYYCAREARDGYRYAFQHWGQGTLVTVSS VL: not shown	0.442 nM	5400 pM		no binding (tested: 100 nM antigen)	no binding (tested: 100 nM antigen)	no binding (tested: 100 nM antigen)	no binding (tested: 100 nM antigen)	no binding (tested: 100 nM antigen)	no binding (tested: 100 nM antigen)	no binding (tested: 100 nM antigen)			no binding (tested: 100 nM antigen)

Further lines, results first:

Kd (Human Activin A Fc)	Activin A-ActRIIB SMAD IC50 pM [1]	Kd (Activin B [2])	binding result (Human GDF8)	binding result (Human GDNF)	binding result (BMP9)	binding result (BMP10)	binding result (GDF15 Fc)	binding result (Human GDF11)	binding result (Human GDF10)	Activin B-ActRIIB SMAD IC50 pM (Activin B [3])	Kd (Human GDF11)	binding result (Activin B [2])	Binder
1.28 nM			no binding (tested: 100 nM antigen)	no binding (tested: 100 nM antigen)	no binding (tested: 100 nM antigen)	no binding (tested: 100 nM antigen)	no binding (tested: 100 nM antigen)	no binding (tested: 100 nM antigen)	no binding (tested: 100 nM antigen)				anti-Activin A antibody Clone P (IgG) (antibody, V domains shown, IgG format; also called Antibody P) VH: QVQLVQSGAEVKKPGSSVKVSCKASGGTFDDYAISWVRQAPGQGLEWMGGIIPRFGIANYAQKFQGRVTITADESTSTAYMELSSLRSEDTAVYYCARPPSSGSDWGQGTLVTVSS VL: DIQMTQSPSSVSASVGDRVTITCRASQGIDSWLAWYQQKPGKAPKLLIYAASSLQSGVPSRFSGSGSGTDFTLTISSLQPEDFATYYCQQVHSFPITFGGGTKVEIKR
0.515 nM		153 nM	no binding (tested: 100 nM antigen)	no binding (tested: 100 nM antigen)	no binding (tested: 100 nM antigen)	no binding (tested: 100 nM antigen)	no binding (tested: 100 nM antigen)		no binding (tested: 100 nM antigen)		23.4 nM		anti-Activin A antibody Clone D (IgG) (antibody, V domains shown, IgG format; also called Antibody D) VH: QVQLVQSGAEVKKPGASVKVSCKASGYTFFGYSMHWVRQAPGQGLEWMGVINPSSGDTNYAQKFQGRVTMTRDTSISTAYMELSRLRSDDTAVYYCARARDIAALGLGAFDYWGQGTLVTVSS VL: not shown
0.492 nM		80.1 nM	no binding (tested: 100 nM antigen)	no binding (tested: 100 nM antigen)	no binding (tested: 100 nM antigen)	no binding (tested: 100 nM antigen)	no binding (tested: 100 nM antigen)		no binding (tested: 100 nM antigen)	24900 pM	18.7 nM		anti-Activin A antibody Clone F (IgG) (antibody, V domains shown, IgG format; also called Antibody F) VH: QVQLVQSGAEVKKPGASVKVSCKASGYTFTGYHIHWVRQVPGQGLEWMGVISAYSGDTNYAQKLQGRVTMTTDTSTSTAYMELRSLRSDDTAVYYCARARDIAALGLGAFDYWGQGTLVTVSS VL: EIVLTQSPATLSVSPGERATLSCRASQSVSSNLAWYQQKPGQAPRLLIYGASDRATGIPARFSGSGSGTEFTLTISSLQSEDFAVYYCIQYSNYPRTFGGGTKVEIKR
0.6 nM			no binding (tested: 100 nM antigen)	no binding (tested: 100 nM antigen)	no binding (tested: 100 nM antigen)	no binding (tested: 100 nM antigen)	no binding (tested: 100 nM antigen)	no binding (tested: 100 nM antigen)	no binding (tested: 100 nM antigen)			no binding (tested: 100 nM antigen)	anti-Activin A antibody Clone R (IgG) (antibody, V domains shown, IgG format; also called Antibody R) VH: QVQLVQSGAEVKKPGSSVKVSCKASGGSFSPYTISWVRQAPGQGLEWMGGIILTSGTANYAQKFQGRVTITADESTSTAYMELSSLRSEDTAVYYCARGGPLSGWRASYYYWGQGTLVTVSS VL: not shown
